Assay results from article PMC7641749 (Nucleic Acids Research, 2020).
Several values for one entry are separate records, joined by “and”; a condition that tells them apart may be missing. Identical values can stand only once.

Target: human ERH (residues 1–104), His6-tagged (human, UniProt P84090 1-104)
Test: ITC

human ERH (residues 1–104), His6-tagged, sequence (P84090 whole entry, the tested form may be a part): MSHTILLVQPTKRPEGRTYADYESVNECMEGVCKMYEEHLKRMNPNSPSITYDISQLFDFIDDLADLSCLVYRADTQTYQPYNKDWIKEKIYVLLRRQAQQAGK

Kd: ~19.6 µM and ~19.7 µM
stoichiometry N: 0.965
Binder: PRTARHAPAVRKFSPDLKLLKDVKISVSFTE [His6-SUMO tagged DGCR8^96–126]
